From publication doi:10.1101/2023.08.30.555639
Read-outs that look alike come from different tables or passages of the source.

What was measured:
[1] = target: BTN3A1 Phe26-Ala on transfected NIH-3T3 cells (human) (UniProt O00481); assay: flow cytometry on cells
[2] = target: BTN3A1 Leu96-Ala on transfected NIH-3T3 cells (human) (UniProt O00481); assay: flow cytometry on cells
[3] = target: BTN3A1 Lys37-Ala on transfected NIH-3T3 cells (human) (UniProt O00481); assay: flow cytometry on cells
[4] = target: BTN3A1 Ser42-Ala on transfected NIH-3T3 cells (human) (UniProt O00481); assay: flow cytometry on cells
[5] = target: soluble BTN2A1^WT–BTN3A1^Glu106-Ala zipper ectodomain complex (human) (UniProt Q7KYR7); assay: SPR
[6] = target: soluble BTN2A1–BTN3A1–zipper ectodomain complex (wild type) (human) (UniProt Q7KYR7); assay: SPR
[7] = target: soluble BTN3A1 ectodomain (IgV–IgC), homodimeric (human) (UniProt O00481); assay: SPR
[8] = target: disulfide-linked BTN2A1 ectodomain homodimer (Cys247, leucine zippers) (human) (UniProt Q7KYR7); assay: SPR
[9] = target: soluble BTN2A1–BTN3A1–zipper ectodomain complex (wild type) (human) (UniProt Q7KYR7); assay: SPR; remark: listed apart in the source

Substance | Kd [7] [µM] | Kd [8] [µM] | Kd [9] [µM] | further results
soluble Vγ9Vδ2^+ γδTCR clone G115, wild type | > 4000 | 99 | 79 | reduction of G115 tetramer staining against wild-type BTN3A1 [1]: > 90%; reduction of G115 tetramer staining against wild-type BTN3A1 [2]: > 90%; reduction of G115 tetramer staining against wild-type BTN3A1 [3]: > 90%; reduction of G115 tetramer staining against wild-type BTN3A1 [4]: > 90%; Kd [5]: 37 µM; Kd [6]: 85 µM
soluble G115 Vγ9Vδ2^+ TCR Lys53δ-Ala | > 1200 |  | 46 | 
monomeric BTN3A1 IgV domain (domain or fragment) |  | 1100 |  | 
soluble BTN2A1 ectodomain lacking Cys247 (monomeric) (from UniProt Q7KYR7 29-248) (domain or fragment) | 1800 |  |  | 
soluble G115 Vγ9Vδ2^+ TCR His85γ-Ala |  |  | 740 | 
